US11708423B2, “Chimeric engulfment receptor molecules and methods of use” (CERO THERAPEUTICS, INC., priority 2017, dated 2023)

How the values were obtained:
[1] = tested on: dexamethasone treated thymocytes; experiment: Phagocytic activity of CER+ Ba/F3 cells against primary apoptotic thymocytes; format: cell-based, C3H mouse; details: for engulfment of dexamethasone-treated thymocytes: target:effector 10:1, 3 hours or overnight, fluorescent microscopy, vs EGFRt control
Procedure: One day prior to phagocytic assay, primary thymocytes were isolated from a C3H mouse (Charles River Laboratories International, Inc.). Thymocytes were cultured in complete RPMI 1640 growth media supplemented with 10% fetal bovine serum and 1% penicillin-streptomycin in a 6-well plate. To induce apoptosis and phosphatidylserine expression on the cell surface, thymocytes were treated with 1 μM dexamethansone for 24 hours. Untreated thymocytes were used as a negative control. Thymocytes were collected from the 6-well plates, washed once with sterile 1X PBS, and then stained with 1 ng/μ1 pH sensitive pHrodo™ Red dye (ThermoFisher Scientific, Catalog #P36600) in PBS at room temperature for 15 minutes. Labeling target cells with pHrodo Red dye permits visualization of cells that are engulfed and transported into lysosomes due to their increased light emission in the acidic lysosomal environment (Miksa et al., 2009, Immunol. Methods 342:71-7). The cells were then supplemented with growth media and washed one more time to remove any excess pHrodo Red. pHrodo Red stained thymocytes were plated on a flat bottom 96 well plate at 250,000 cells/well in RMPI 1640 complete media. […]
[…] The 96 well plate was then viewed using KEYENCE BZ-X710 fluorescence microscope, 20X objective. […]
A phagocytic index was calculated by multiplying [mean of total number of engulfed target cells/total number of counted CER modified cells (e.g., phagocytic frequency)] by [average area of target cell staining per CER+Ba/F3 cell x 100 (e.g., hybrid capture)] as compared to control EGFRt+Ba/F3 cells (see, FIG. 8). […]
Primary C3H mouse thymocytes were isolated, treated with dexamethasone, and stained with pHrodo Red as described in Example 1. […] Co-culture experiments were carried out at a 10:1 target cell to effector cell ratio, and Ba/F3 CER07^+tEGFR^+ cells were quantified for phagocytosis by fluorescence microscopy and FACs as described in Example 1. […]

[2] = tested on: CT26 murine colon carcinoma cells; experiment: Phagocytic activity of CER+ Ba/F3 cells against murine cell line CT26; format: cell-based; details: target:effector 5:1, 3 hours
Procedure: One day prior to the phagocytosis assay, CT26 murine colon carcinoma cells were cultured in complete RPMI 1640 growth media supplemented with 10% fetal bovine serum and 1% penicillin-streptomycin in a 6-well plate and treated with 1 mM staurosporine (STS) for 12 hours to induce apoptosis. Untreated CT26 cells were used as a negative control.
On the day of the phagocytosis assay, CT26 cells were collected, washed twice with 1×PBS to remove excess staurosporine and then stained with 1 ng/μ1 pHrodo Red in PBS at room temperature for 15 minutes. […]
Target CT26 cells were co-cultured with stained, CER05^+tEGFR^+ cells at a ratio of 5:1 (target cell:effector cell) for 3 hours at 37° C. […] The 96 well plate was then viewed using KEYENCE BZ-X710 fluorescence microscope, 20X objective. […]
A hybrid capture algorithm that detects fluorescence of pHrodo Red within CELLTRACE Violet staining area was applied to fluorescent images to quantify the area of engulfed target cells/area of CER^+ B cells or control tEGFR+ B cells (see, FIG. 12). […]
A hybrid capture algorithm that detects fluorescence of pHrodo Red within CELLTRACE Violet staining area was applied to fluorescent images to quantify the area of engulfed target cells/area of CER^+ B cells (see, FIG. 17). […]

[3] = tested on: human primary B cells; experiment: Proliferation of CER+ B cells co-cultured with paclitaxel treated Jurkat cells (CELLTRACE Violet dilution); format: cell-based; details: 5 days co-culture with paclitaxel (30 μM) treated Jurkat cells, no exogenous cytokines
Procedure: The proliferation capacity of CER19+ and CER21+ human primary B cells was evaluated by co-culture with paclitaxel (30 μM) treated Jurkat lymphoma cells. CER-transduced B cells were labeled with CELLTRACE Violet and then co-cultured with paclitaxel treated Jurkat cells a target cell to effector cell ratio of 5:1 at 37° C. in the absence of exogenous cytokines for 5 days. Proliferation of CER19+ or CER21+B cells was assessed by flow cytometry by measuring dilution of CELLTRACE Violet (FIG. 23). Both CER19+ and CER21+ B cells increased approximately 10-fold after 5 days of co-culture in the absence of exogenous cytokines.

| Molecule | co-localization of pHrodo red labeled thymocytes with LysoTracker green vesicles ([1]; 6 hours, 50 nM LysoTracker green) | engulfment of dexamethasone-treated thymocytes [1] | phagocytosis of staurosporine treated CT26 cells [2] | increase of CER+ B cells [3] |
| --- | --- | --- | --- | --- |
| CER05: Tim4 binding domain, Tim4 transmembrane domain, TLR4 signaling domain; SEQ ID NO:81 (protein, CER05 chimeric engulfment receptor) MSKGLLLLWLVTELWWLYLTPAASEDTIIGFLGQPVTLPCHYLSWSQSRNSMCWGKGSCPNSKCNAELLRTDGTRIISRKSTKYTLLGKVQFGEVSLTISNTNRGDSGVYCCRIEVPGWFNDVKKNVRLELRRATTTKKPTTTTRPTTTPYVTTTTPELLPTTVMTTSVLPTTTPPQTLATTAFSTAVTTCPSTTPGSFSQETTKGSAFTTESETLPASNHSQRSMMTISTDIAVLRPTGSNPGILPSTSQLTTQKTTLTTSESLQKTTKSHQINSRQTILIIACCVGFVLMVLLFLAFLKFYFHLMLLAGCIKYGRGENIYDAFVIYSSQDEDWVRNELVKNLEEGVPPFQLCLHYRDFIPGVAIAANIIHEGFHKSRKVIVVVSQHFIQSRWCIFEYEIAQTWQFLSSRAGIIFIVLQKVEKTLLRQQVELYRLLSRNTYLEWEDSVLGRHIFWRRLRKALLDGKSWNPEGTVGTGCNWQEATSI | pHrodo-labeled target cells have been internalized into lysosomes | engulf dexamethasone-treated thymocytes | in vitro phagocytosis |  |
| CER19: Tim4 binding and transmembrane domains, TLR5 signaling domain; SEQ ID NO:86 (protein, CER19 chimeric engulfment receptor) MSKGLLLLWLVTELWWLYLTPAASEDTIIGFLGQPVTLPCHYLSWSQSRNSMCWGKGSCPNSKCNAELLRTDGTRIISRKSTKYTLLGKVQFGEVSLTISNTNRGDSGVYCCRIEVPGWFNDVKKNVRLELRRATTTKKPTTTTRPTTTPYVTTTTPELLPTTVMTTSVLPTTTPPQTLATTAFSTAVTTCPSTTPGSFSQETTKGSAFTTESETLPASNHSQRSMMTISTDIAVLRPTGSNPGILPSTSQLTTQKTTLTTSESLQKTTKSHQINSRQTILIIACCVGFVLMVLLFLAFLTKFRGFCFICYKTAQRLVFKDHPQGTEPDMYKYDAYLCFSSKDFTWVQNALLKHLDTQYSDQNRFNLCFEERDFVPGENRIANIQDAIWNSRKIVCLVSRHFLRDGWCLEAFSYAQGRCLSDLNSALIMVVVGSLSQYQLMKHQSIRGFVQKQQYLRWPEDFQDVGWFLHKLSQQILKKEKEKKKDNNIPLQTVATIS |  |  |  | approximately 10 fold |
| CER07: Tim4 binding domain, TLR4 juxtamembrane spacer, TLR4 transmembrane domain, TLR4 signaling domain; SEQ ID NO:83 (protein, CER07 chimeric engulfment receptor) MSKGLLLLWLVTELWWLYLTPAASEDTIIGFLGQPVTLPCHYLSWSQSRNSMCWGKGSCPNSKCNAELLRTDGTRIISRKSTKYTLLGKVQFGEVSLTISNTNRGDSGVYCCRIEVPGWFNDVKKNVRLELRRATTTKKPTTTTRPTTTPYVTTTTPELLPTTVMTTSVLPTTTPPQTLATTAFSTAVTTCPSTTPGSFSQETTKGSAFTTESETLPASNHSQRSMMTISTDIAVLRPTGSNPGILPSTSQLTTQKTTLTTSESLQKTTKSHQINSRQTPVLSLNITCQMNKTIIGVSVLSVLVVSVVAVLVYKFYFHLMLLAGCIKYGRGENIYDAFVIYSSQDEDWVRNELVKNLEEGVPPFQLCLHYRDFIPGVAIAANIIHEGFHKSRKVIVVVSQHFIQSRWCIFEYEIAQTWQFLSSRAGIIFIVLQKVEKTLLRQQVELYRLLSRNTYLEWEDSVLGRHIFWRRLRKALLDGKSWNPEGTVGTGCNWQEATSI |  | engulfed dexamethasone-treated thymocytes | engulfed staurosporine treated CT26 cells |  |
